Laboratory results published in US20250197493A1 (Eli Lilly, published 2025).

Legend:
Human LAG-3 ECD-His [1] = target: T1, Human LAG-3 ECD-His (human, UniProt P18627 23-449); assay: SPR (Biacore), antibody captured, 37° C.
T1 construct: It was the analyte in SPR and the antigen in HDX-MS; also called human LAG-3 soluble extracellular domain (ECD); human LAG-3-His ECD
T1 sequence: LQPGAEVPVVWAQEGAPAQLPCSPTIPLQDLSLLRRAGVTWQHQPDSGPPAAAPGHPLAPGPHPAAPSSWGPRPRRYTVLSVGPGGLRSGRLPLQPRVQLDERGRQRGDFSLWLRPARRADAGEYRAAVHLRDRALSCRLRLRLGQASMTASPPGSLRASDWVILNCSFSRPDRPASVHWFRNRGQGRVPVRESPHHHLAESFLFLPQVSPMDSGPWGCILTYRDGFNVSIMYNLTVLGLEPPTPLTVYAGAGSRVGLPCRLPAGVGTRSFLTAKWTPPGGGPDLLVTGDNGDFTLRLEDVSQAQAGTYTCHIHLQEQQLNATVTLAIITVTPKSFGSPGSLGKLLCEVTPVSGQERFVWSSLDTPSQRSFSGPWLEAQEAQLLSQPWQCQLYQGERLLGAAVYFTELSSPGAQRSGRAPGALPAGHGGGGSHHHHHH
Experimental: (§1) Surface Plasmon Resonance (SPR) at 37° C. is performed to determine the binding kinetics and affinity of LAG-3 antibodies to human LAG-3 and/or cynomolgus monkey LAG-3. A Biacore® T200 (Cytiva, Marlborough, MA) was used to measure the binding kinetics and affinities of Antibody A to human LAG-3 soluble extracellular domain (ECD) SEQ ID NO: 59) and to cynomolgus LAG-3 ECD (ACROBiosystems, Cat #LA3-C82H3; SEQ ID NO: 59) by surface plasmon resonance. Samples were diluted in HBS-EP+ (10 mM Hepes, 150 mM NaCl, 3 mM EDTA, 0.05% Tween-20, pH 7.6) (Teknova Cat #H8022) with 5 g/L of BSA (Jackson ImmunoResearch Cat #001-000-161) running buffer. PrismA Series S Sensor chip (Cat #29650263) is purchased from Cytiva.
(§2) Binding was evaluated using multi-cycle kinetics by an antibody capture method. Each cycle was performed at either 37° C. or 25° C. at a flow rate of 10 μL/min for antibody capture to the PrismA chip and 100 μL/min for analyte association (with 120 sec contact time) and dissociation (900 sec). Each cycle consisted of the following steps: injection of antibody at 1 μg/mL in HBS-EP+ targeting Rmax values of 60 RU on flow cell, injection of analyte in HBS-EP+ (concentration range of 500 nM to 0.25 nM by two-fold serial dilution for human LAG-3-His ECD (SEQ ID NO: 59) followed by 900-second dissociation phase, and regeneration using 10 μL of 10 mM glycine hydrochloride, pH 1.5 over a 60-second contact time utilizing a 10 μL/min flow rate. All analyte concentrations were determined utilizing monomeric molecular weight (MW) values. Association rates (kₒₙ) and dissociation rates (koff) for LAG-3-ECD were evaluated using double referencing by flow-cell one reference subtraction in addition to 0 nM blank subtraction and fit to “1:1 (Langmuir) binding” model in the BIAevaluation software version 4.1. The dissociation constant (KD) was calculated from the binding kinetics according to the relationship KD=Koff/Kₒₙ. Stoichiometry=[RUₘₐₓ/RUcaptured]/[MWanalyte/MWantibody] where MW_{Antibody A} is 150 kDa. Values are reported as mean±standard deviation.

Cynomolgus LAG-3 ECD-His [2] = target: T2, Cynomolgus LAG-3 ECD-His (cynomolgus monkey); assay: SPR (Biacore), antibody captured, 37° C.
T2 construct: Bought protein (ACROBiosystems); also called ACROBiosystems Cat #LA3-C82H3
T2 chain: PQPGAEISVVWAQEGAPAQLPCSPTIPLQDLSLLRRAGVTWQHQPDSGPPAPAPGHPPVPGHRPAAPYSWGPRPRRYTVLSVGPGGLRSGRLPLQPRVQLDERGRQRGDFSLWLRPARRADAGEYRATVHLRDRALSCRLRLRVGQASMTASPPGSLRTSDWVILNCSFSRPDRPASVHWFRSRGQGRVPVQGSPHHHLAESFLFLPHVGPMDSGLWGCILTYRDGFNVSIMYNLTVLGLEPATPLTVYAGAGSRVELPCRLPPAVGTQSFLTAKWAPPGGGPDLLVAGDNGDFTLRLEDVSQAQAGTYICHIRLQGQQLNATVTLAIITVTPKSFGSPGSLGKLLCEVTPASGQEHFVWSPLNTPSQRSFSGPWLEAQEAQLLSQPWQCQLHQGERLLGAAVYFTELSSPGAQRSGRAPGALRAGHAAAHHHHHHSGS
Experimental: as §1, §2

Human LAG-3 ECD-His [3] = target: T1, Human LAG-3 ECD-His; assay: SPR (Biacore), antibody captured, 25° C.
Experimental: as §1, §2

Cynomolgus LAG-3 ECD-His [4] = target: T2, Cynomolgus LAG-3 ECD-His; assay: SPR (Biacore), antibody captured, 25° C.
Experimental: as §1, §2

[5] = target: T3, cell membrane-expressed human LAG-3 (human, UniProt P18627 23-525); assay: flow cytometry, SEB-activated human PBMCs, CD4 T cells, percent of cells bound
T3 construct: also called cell surface human LAG-3; hLAG-3
T3 sequence: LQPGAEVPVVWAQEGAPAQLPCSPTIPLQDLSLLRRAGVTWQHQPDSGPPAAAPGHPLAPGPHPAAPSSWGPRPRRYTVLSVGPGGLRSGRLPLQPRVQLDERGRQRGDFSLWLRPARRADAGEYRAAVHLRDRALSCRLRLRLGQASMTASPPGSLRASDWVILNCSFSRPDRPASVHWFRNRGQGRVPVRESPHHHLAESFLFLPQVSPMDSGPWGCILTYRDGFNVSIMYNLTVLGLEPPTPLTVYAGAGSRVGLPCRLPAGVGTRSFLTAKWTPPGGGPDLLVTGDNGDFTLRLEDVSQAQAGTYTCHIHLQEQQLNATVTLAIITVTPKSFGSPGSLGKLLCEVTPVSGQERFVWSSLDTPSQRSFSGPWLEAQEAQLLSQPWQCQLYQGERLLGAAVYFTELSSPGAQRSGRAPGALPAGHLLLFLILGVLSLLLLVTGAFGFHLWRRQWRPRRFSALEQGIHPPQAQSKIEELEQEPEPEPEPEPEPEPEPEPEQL
Experimental: (§3) Cells were incubated with a 12 point, 4-fold serial dilutions of Antibody A or Isotype hG1, starting at 100 μg/mL, in PBS+2% FBS for 30 minutes at 4° C. The samples were washed and stained with 1 μg/mL Alexa Fluor 647 AffiniPure F (ab′) 2 Fragment Goat Anti-Human IgG, Fcy fragment specific (Jackson Immuno Research 109-606-098) in PBS+2% FBS for 30 minutes at 4° C. After washing thoroughly human samples were stained with CD3 Biolegend #300424, CD4 Biolegend #300512, CD8 Biolegend #301006, PD-1 Biolegend 329906, non-competing LAG3 418611 conjugated in house BN20-2739-10, Live/Dead Near IR Invitrogen L34975A, CD19 Biolegend 302218, CD33 Biolegend 366614, and CD56 Biolegend 362512 in PBS+2% FBS for 30 minutes at 4° C. Cyno samples were stained with CD3 BD 557917, CD4 BD 566910, CD8 BD 557746, PD-1 Biolegend 329906, non-competing LAG3 418611 conjugated in house BN20-2739-10, and Live/Dead Near IR Invitrogen L34975A in PBS+2% FBS for 30 minutes at 4° C. Cells were washed and processed on a BioRad ZE5 cytometer and data was analyzed with FlowJo software (BD Biosciences). Percent of cells bound by the respective antibody is quantified and graphed with Prism (Graphpad, San Diego, CA).

[6] = target: T4, cell membrane-expressed cynomolgus LAG-3 (cynomolgus monkey); assay: flow cytometry, SEB-activated cynomolgus PBMCs, CD8 T cells, percent of cells bound
T4 construct: whole, on cells; also called cell surface cynomolgus monkey LAG-3
Experimental: as §3

[7] = target: T4, cell membrane-expressed cynomolgus LAG-3; assay: flow cytometry, SEB-activated cynomolgus PBMCs, CD4 T cells, percent of cells bound
Experimental: as §3

[8] = target: T3, cell membrane-expressed human LAG-3; assay: flow cytometry, SEB-activated human PBMCs, CD8 T cells, percent of cells bound
Experimental: as §3

B1: Antibody A (antibody, human IgG1, kappa, V domains shown)
VH: QVQLQESGPGLVKPSQTLSLTCTVSGGSISSGGYYWSWIRQHPGKGLEWIGYIYYSGITYYNPSLKSRVTISVDTSKNQFSLKLSSVTAADTAVYYCARSAVTTPFDYWGQGTLVTVSS
VL: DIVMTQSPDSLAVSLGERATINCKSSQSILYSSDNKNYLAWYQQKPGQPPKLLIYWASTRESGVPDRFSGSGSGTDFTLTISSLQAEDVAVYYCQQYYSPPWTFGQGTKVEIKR
notes: Human IgG1 heavy chain, kappa light chain; also called anti-human LAG-3 agonist antibody
With B1 as the binder, how does the Kd (Human LAG-3 ECD-His [1]) read?
The Kd was 0.064 nM.

What about the koff (Human LAG-3 ECD-His [1]) of the same binder?
The koff was 0.0013 s⁻¹.

And the kon (Human LAG-3 ECD-His [1])?
Its kon is 2.1e+07 M⁻¹ s⁻¹.

What about the Kd (Cynomolgus LAG-3 ECD-His [2]) of the same binder?
The Kd was 0.13 nM.

What about the koff (Cynomolgus LAG-3 ECD-His [2]) of the same binder?
Its koff is 0.00035 s⁻¹.

What about the kon (Cynomolgus LAG-3 ECD-His [2]) of the same binder?
The kon was 2.7e+06 M⁻¹ s⁻¹.

What about the Kd (Human LAG-3 ECD-His [3]) of the same binder?
Its Kd is 0.14 nM.

And the koff (Human LAG-3 ECD-His [3])?
The koff was 0.0012 s⁻¹.

What about the kon (Human LAG-3 ECD-His [3]) of the same binder?
The kon was 8.3e+06 M⁻¹ s⁻¹.

And the Kd (Cynomolgus LAG-3 ECD-His [4])?
The Kd was 0.038 nM.

And the koff (Cynomolgus LAG-3 ECD-His [4])?
The koff was 0.00015 s⁻¹.

What about the kon (Cynomolgus LAG-3 ECD-His [4]) of the same binder?
The kon was 3.9e+06 M⁻¹ s⁻¹.

What about the EC50 [5] of the same binder?
Its EC50 is 0.0156 µg/mL.

What about the EC50 [6] of the same binder?
Its EC50 is 0.183 µg/mL.

And the EC50 [7]?
The EC50 was 0.857 µg/mL.

And the EC50 [8]?
The EC50 was 0.0155 µg/mL.
